Experimental data from the RNAGym collection of RNA variant scans (doi:10.1073/pnas.2313332121).
This sample holds only a part of the variants without activity.

B1: TPR 5TU (parent)
chain: GGAUCUUCUCGAUCUAACAAAAAAGACAAAUCUGCCACAAAGCUUGAGAGCAUCUUCGGAUGCAGAGGCGGCAGCCUUCGGUGGCGCGAUAGCGCCAACGUUCUCAACUAUGACACGCAAAACGCGUGCUCCGUUGAAUGGAGUUUAUCAUG

Variants of: B1
Test: polymerase ribozyme fitness, log enrichment relative to wild type (log ratio); higher = more active; in vitro selection for triplet polymerase activity
Summary of the method: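 Genotype fitness is the logarithm of its enrichment divided by wild-type enrichment, using inverse-variance-weighted averages of replicates. That logarithm is base 2. Enrichment was measured by Illumina sequencing of input and output libraries from one triplicate in vitro selection round, with frozen incubation at −7 °C, on PCR-built, transcribed mutant libraries of each subunit of a heterodimeric triplet polymerase ribozyme, retaining genotypes with ≥10 input reads and ≥1 read per output.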

| Variant | polymerase ribozyme fitness (log ratio) |
| --- | --- |
| GGAUCUUCACGGUUUAACAAAAUAGACAAAUCUGCCACACAGCUUGAGAGCAUCUUCGGAUGCAGAGGCGGCAGCGUUCGGUGGCCCGACAGCGCCAACGUUCUCAACUAUGACACGAAAAACGCGUGCUGCGUUGAAUGGAGUUUAUCAUG [U9A A12G C14U A23U A40C C76G G86C U90C C118A C131G] | ≤ -4.2 |
| GGAUCUUCACGAUCUACCACAAAAGACAAAUCUGCCACAAAGCUUGAGAGCAUUGUCAGAUGCAGAAGCGGCAGCCUUCGGUGGCGCGAUAGCGCCAACGUUCUCAACUAUGACAGGCAAAACGCGUGCUCCGUUGAAUGGAAUUUAUCAUG [U9A A17C A20C C54U U55G G58A G67A C116G G143A] | ≤ -4.2 |
| GGAUCUUCACGAUCUAACAAAACAGACAAAUCUGGCACAAAGCUUGAGAGCAUCUUCGGAUGCAGAGGCGGCAGUCUUCGGUGGCGCGAUAUCGGCAACGUUCUCAACUAUGACACGCAAAACGCGAGCUCCGUUGAAUGGAGUUUAUCAUG [U9A A23C C35G C75U G92U C95G U127A] | ≤ -4.2 |
| GGAUCUUCACGAUCUAACAAAAGAGACAAAUCUGCCACAAAGCUUGAGAGCAUCUUCGGAUGCAGAGCCGGCAGCCUUUGGUGGCGCGAUAGCCCCAACGUUCUGAACUAUGACACGCAAAACGCGUGCUCCGUUGAAUGGAAUUUAUCAUG [U9A A23G G68C C79U G94C C105G G143A] | ≤ -4.2 |
| GGAUCUUCACGAUCUAACAAAAAGGACAAAUCUGCCACAAAGCUUGAGAGCAUAUUCGGAUGCAGAGGCGGCAGCCUUCGGUGGCGGGAUAGCGCCAACGUUCUCAACUAUGACACGCAAAACGCGUGCUCCGUUGAAUGGAGUUUAUCAUG [U9A A24G C54A C87G] | ≤ -4.2 |
| GGAUCUUCACGAUCUAACAUAAAAGACUAAUCUGCCACAAAGCUUGAGAGCAUCUUCGGAUGCAGAGGCGGCAGCCUUAGGUGGCGUGAUAGCGCCAACGUUCUCAACUAUGACACGCAAAACGCGUGCUCCGUUGAAAGGAGUUUAUCAUG [U9A A20U A28U C79A C87U U139A] | ≤ -4.2 |
| GGAUCUUUUCGAUCGAGCAAAAAAGACAAGUCUGCCACAAAGCGUGAGAGCAUCUUCGGAUGCAGAGGCGGCAGCAUUCGGUGGCGAGAUAGCGCCAACGUUCUCAACUAUGACACGCAAAACGCGUGCUCCGUUGAAUGGAGUUUAUCAUG [C8U U15G A17G A30G U44G C76A C87A] | ≤ -4.2 |
| GGAUCUUUUCGACCUAACAAAGAAGACAAAUCUGCCACAAAGCUUGAGAGCAUCUUCGGAUGCAGAGGCGGCAGCCUUCGGUGGCGCGAUAGUGCCAACGUUCUCAACUAUGACACGCAAAACGCAUGCUCCGUUGAAUGGAGUUUAUCAUG [C8U U13C A22G C93U G126A] | -1.08 |
| GGAUCUUCACGAUCUAACACAAAAGGCUAAUCUGCCACAAAGCUUGAGAGCAUCUUCGGAUGCAGAUGCGGCAGCCUUCGGCGGCGCGAGAGCGCCAACGUUCUCAACUAUGACACGCAAAACACGUGCUCCGCUGAAUGGAGUUAAUCAUG [U9A A20C A26G A28U G67U U82C U90G G124A U134C U146A] | ≤ -4.2 |
| GGAUCUUCACGAUCUGACAAAAAAGACAAAUCUGCCACAAAGCUAGAGAGCAUCUUAGGAUGCAGAGGCGGCAGGCUUCGGUUGCGCGAUAACGCCAACGUUCUCAACUAUGACACGCAAAACGCGUGCUCCGUUGAAUGGAGUUUAUCAUG [U9A A16G U45A C57A C75G G83U G92A] | ≤ -4.2 |
| GGAUCUUUUCGAUCUAACAAAAAAGACAAAGCUGCCACAAAGCUUGAGAGCAUCUUCGGAUGCAGAGGCGGCAGCCUUCGGUGGCGCGAUAGCGCCAACGUUCUCAACUAUGACACGCAAAACGCGUGCUCCGUUGAAUGGAGUUUAUCAUG [C8U U31G] | -3.21 |
| GGAUCUUCACGCUCUAACAAAAGAGACAAAUCUGCCACAAACCUUGAGAGAAUCUUCGGAUGCAGAGGCGGCAGCCUUCGGUGGCGCGAUAGCGCCAACGUUCUCAACUAUGACACGCACUACGCGUGCUCCGUUGAAUGGAGUUUAUCAUG [U9A A12C A23G G42C C51A A120C A121U] | ≤ -4.2 |
| GGAUCUUCACGAUCUAACAAAACAGACAAAUUUGCCACAAAGCUUGAGAGCAUCUUCGGAUGCAGAGGCGGGAGCCUUCAAUGGCGCGAUAGCGCCAACGUUCUCAACUAUGACACGCAAAACGCGUGCUCCGUUGAAUGGAGUUUAUCAUG [U9A A23C C32U C72G G80A G81A] | ≤ -4.2 |
| GGAUCUUCACGAUCUAACAAAAAAGACAAAUCUGCCACAAAGCUUGAGAGCAUCUUCGGAUGCAGAGGCGGCAGCCUUCGGUGGCGCGAUAGCGCCAACGUUCUCAACUAUGACACGCAAAACGCGUGCUCCGUUGAAUGGAGUUUAUCAUG [U9A] | -2.7 |
| GGAUCUUUUCGAUCUAACAAAAAAGACAAAUCUGCCACAAAGCGUGAGAGCAUCAUCGGAUGCAGAGGCGGCAGCCUUUGGUGGCGCAAUAGCGCCAACGUUCUCAACUUUGACACGCAAAACGCGUGCUCCGUUGAAUGGAGUUUAUCAUG [C8U U44G U55A C79U G88A A110U] | ≤ -4.2 |
| GGAUCUUCACGAUCUAACAAAAAAGUCAAAUCUGCCACAAAGCUUGCGGGCAUCUUCGGAUGCAGAGGCGGCAGCCUUCGGUGACCCGAUAGCGCCAACGUUCUCAACUAUGACACGCAAAACGCGUGCUCCGUUGAAUGGAGUUUAUCAUG [U9A A26U A47C A49G G84A G86C] | ≤ -4.2 |
| GGAUCUUCACGAUCUAACACAAUAGACAAAGCUGCCACAAAGCUUGCGAUCAUCUUCAGAUGCAGAGGCGGCAGCCUUCGGUGGUGCGAUCGCGCCAACGUUCUCAACUAUGACACGCAAAACGCGUGCUCCGUUGAAUGGAGUUUAUCAUG [U9A A20C A23U U31G A47C G50U G58A C85U A91C] | ≤ -4.2 |
| GGAUCUUCACGAUCUAACAAAACAGACAAAGCUGCCACAAAGCUUGAGAGCAUCUUCGGAUGCAGAGGCGGCUGCCUUCGGUGGCGCGAUAGGGCCAACGUUCUCGACUAUGACACACAAAACGCGUGCUCCAUUGAAUGGAGUUUAUCGUG [U9A A23C U31G A73U C93G A106G G117A G133A A150G] | ≤ -4.2 |
| GGAUCUUCACGAUCUUACUAAAAAGAGAAAUCUGCCACAAAGCUUGAGAGCAUCUUCGGAUGCAGAGGCGGCAGCCCUCGGUGACGCGAUAGCGCCAACCUUCUCAACUAUGACACGCAAAACGCGUGCUCCUUUGAAUGAAGUAUAUCAUG [U9A A16U A19U C27G U77C G84A G100C G133U G141A U145A] | ≤ -4.2 |
